Nine proteins from article PMC7018833, “Siroheme synthase orients substrates for dehydrogenase and chelatase activities in a common active site” (Nature Communications, 2020) can be followed below.

This series deals with the molecule itself. Put plainly: crystal structure.

B1: S128A S. enterica siroheme synthase (CysG) (enzyme)
chain: MDHLPIFCQLRDRDCLIVGGGDVAERKARLLLEAGARLTVNALTFIPQFTVWANEGMLTLVEGPFDETLLDSCWLAIAATDDDTVNQRVSDAAESRRIFCNVVDAPKAASFIMPSIIDRSPLMVAVSAGGTSPVLARLLREKLESLLPQHLGQVARYAGQLRARVKKQFATMGERRRFWEKFFVNDRLAQSLANADEKAVNATTERLFSEPLDHRGEVVLVGAGPGDAGLLTLKGLQQIQQADIVVYDRLVSDDIMNLVRRDADRVFVGKRAGYHCVPQEEINQILLREAQKGKRVVRLKGGDPFIFGRGGEELETLCHAGIPFSVVPGITAASGCSAYSGIPLTHRDYAQSVRLVTGHLKTGGELDWENLAAEKQTLVFYMGLNQAATIQEKLIAFGMQADMPVALVENGTSVKQRVVHGVLTQLGELAQQVESPALIIVGRVVALRDKLNWFSNH
notes: also called S128A-CysG; source: E. coli LMG194 (pBAD vector), purified (Ni-NTA, anion-exchange, size exclusion chromatography)
For the protein B1, the binding result is reported as “binds”.

B2: D262A/S128A CysG (enzyme)
chain: MDHLPIFCQLRDRDCLIVGGGDVAERKARLLLEAGARLTVNALTFIPQFTVWANEGMLTLVEGPFDETLLDSCWLAIAATDDDTVNQRVSDAAESRRIFCNVVDAPKAASFIMPSIIDRSPLMVAVSAGGTSPVLARLLREKLESLLPQHLGQVARYAGQLRARVKKQFATMGERRRFWEKFFVNDRLAQSLANADEKAVNATTERLFSEPLDHRGEVVLVGAGPGDAGLLTLKGLQQIQQADIVVYDRLVSDDIMNLVRRAADRVFVGKRAGYHCVPQEEINQILLREAQKGKRVVRLKGGDPFIFGRGGEELETLCHAGIPFSVVPGITAASGCSAYSGIPLTHRDYAQSVRLVTGHLKTGGELDWENLAAEKQTLVFYMGLNQAATIQEKLIAFGMQADMPVALVENGTSVKQRVVHGVLTQLGELAQQVESPALIIVGRVVALRDKLNWFSNH
notes: source: E. coli LMG194 (pBAD vector), purified (Ni-NTA, anion-exchange, size exclusion chromatography)
Consider B2, for which the binding result is “binds”.

B3: D104A/S128A CysG (enzyme)
chain: MDHLPIFCQLRDRDCLIVGGGDVAERKARLLLEAGARLTVNALTFIPQFTVWANEGMLTLVEGPFDETLLDSCWLAIAATDDDTVNQRVSDAAESRRIFCNVVAAPKAASFIMPSIIDRSPLMVAVSAGGTSPVLARLLREKLESLLPQHLGQVARYAGQLRARVKKQFATMGERRRFWEKFFVNDRLAQSLANADEKAVNATTERLFSEPLDHRGEVVLVGAGPGDAGLLTLKGLQQIQQADIVVYDRLVSDDIMNLVRRDADRVFVGKRAGYHCVPQEEINQILLREAQKGKRVVRLKGGDPFIFGRGGEELETLCHAGIPFSVVPGITAASGCSAYSGIPLTHRDYAQSVRLVTGHLKTGGELDWENLAAEKQTLVFYMGLNQAATIQEKLIAFGMQADMPVALVENGTSVKQRVVHGVLTQLGELAQQVESPALIIVGRVVALRDKLNWFSNH
notes: as for B2
For B3, the binding result was “binds”.

B4: R260A/S128A CysG (enzyme)
chain: MDHLPIFCQLRDRDCLIVGGGDVAERKARLLLEAGARLTVNALTFIPQFTVWANEGMLTLVEGPFDETLLDSCWLAIAATDDDTVNQRVSDAAESRRIFCNVVDAPKAASFIMPSIIDRSPLMVAVSAGGTSPVLARLLREKLESLLPQHLGQVARYAGQLRARVKKQFATMGERRRFWEKFFVNDRLAQSLANADEKAVNATTERLFSEPLDHRGEVVLVGAGPGDAGLLTLKGLQQIQQADIVVYDRLVSDDIMNLVARDADRVFVGKRAGYHCVPQEEINQILLREAQKGKRVVRLKGGDPFIFGRGGEELETLCHAGIPFSVVPGITAASGCSAYSGIPLTHRDYAQSVRLVTGHLKTGGELDWENLAAEKQTLVFYMGLNQAATIQEKLIAFGMQADMPVALVENGTSVKQRVVHGVLTQLGELAQQVESPALIIVGRVVALRDKLNWFSNH
notes: as for B2
B4: the binding result was “binds”.

B5: P133H/S128A CysG (enzyme)
chain: MDHLPIFCQLRDRDCLIVGGGDVAERKARLLLEAGARLTVNALTFIPQFTVWANEGMLTLVEGPFDETLLDSCWLAIAATDDDTVNQRVSDAAESRRIFCNVVDAPKAASFIMPSIIDRSPLMVAVSAGGTSHVLARLLREKLESLLPQHLGQVARYAGQLRARVKKQFATMGERRRFWEKFFVNDRLAQSLANADEKAVNATTERLFSEPLDHRGEVVLVGAGPGDAGLLTLKGLQQIQQADIVVYDRLVSDDIMNLVRRDADRVFVGKRAGYHCVPQEEINQILLREAQKGKRVVRLKGGDPFIFGRGGEELETLCHAGIPFSVVPGITAASGCSAYSGIPLTHRDYAQSVRLVTGHLKTGGELDWENLAAEKQTLVFYMGLNQAATIQEKLIAFGMQADMPVALVENGTSVKQRVVHGVLTQLGELAQQVESPALIIVGRVVALRDKLNWFSNH
notes: as for B2
On to B5, for which the binding result is on record as “binds”.

B6: R261A/S128A CysG (enzyme)
chain: MDHLPIFCQLRDRDCLIVGGGDVAERKARLLLEAGARLTVNALTFIPQFTVWANEGMLTLVEGPFDETLLDSCWLAIAATDDDTVNQRVSDAAESRRIFCNVVDAPKAASFIMPSIIDRSPLMVAVSAGGTSPVLARLLREKLESLLPQHLGQVARYAGQLRARVKKQFATMGERRRFWEKFFVNDRLAQSLANADEKAVNATTERLFSEPLDHRGEVVLVGAGPGDAGLLTLKGLQQIQQADIVVYDRLVSDDIMNLVRADADRVFVGKRAGYHCVPQEEINQILLREAQKGKRVVRLKGGDPFIFGRGGEELETLCHAGIPFSVVPGITAASGCSAYSGIPLTHRDYAQSVRLVTGHLKTGGELDWENLAAEKQTLVFYMGLNQAATIQEKLIAFGMQADMPVALVENGTSVKQRVVHGVLTQLGELAQQVESPALIIVGRVVALRDKLNWFSNH
notes: as for B2
Regarding B6, the binding result was “binds”.

B7: D104N/S128A CysG (enzyme)
chain: MDHLPIFCQLRDRDCLIVGGGDVAERKARLLLEAGARLTVNALTFIPQFTVWANEGMLTLVEGPFDETLLDSCWLAIAATDDDTVNQRVSDAAESRRIFCNVVNAPKAASFIMPSIIDRSPLMVAVSAGGTSPVLARLLREKLESLLPQHLGQVARYAGQLRARVKKQFATMGERRRFWEKFFVNDRLAQSLANADEKAVNATTERLFSEPLDHRGEVVLVGAGPGDAGLLTLKGLQQIQQADIVVYDRLVSDDIMNLVRRDADRVFVGKRAGYHCVPQEEINQILLREAQKGKRVVRLKGGDPFIFGRGGEELETLCHAGIPFSVVPGITAASGCSAYSGIPLTHRDYAQSVRLVTGHLKTGGELDWENLAAEKQTLVFYMGLNQAATIQEKLIAFGMQADMPVALVENGTSVKQRVVHGVLTQLGELAQQVESPALIIVGRVVALRDKLNWFSNH
notes: as for B2
For the protein B7, the binding result is “binds”.

B8: P133G/S128A CysG (enzyme)
chain: MDHLPIFCQLRDRDCLIVGGGDVAERKARLLLEAGARLTVNALTFIPQFTVWANEGMLTLVEGPFDETLLDSCWLAIAATDDDTVNQRVSDAAESRRIFCNVVDAPKAASFIMPSIIDRSPLMVAVSAGGTSGVLARLLREKLESLLPQHLGQVARYAGQLRARVKKQFATMGERRRFWEKFFVNDRLAQSLANADEKAVNATTERLFSEPLDHRGEVVLVGAGPGDAGLLTLKGLQQIQQADIVVYDRLVSDDIMNLVRRDADRVFVGKRAGYHCVPQEEINQILLREAQKGKRVVRLKGGDPFIFGRGGEELETLCHAGIPFSVVPGITAASGCSAYSGIPLTHRDYAQSVRLVTGHLKTGGELDWENLAAEKQTLVFYMGLNQAATIQEKLIAFGMQADMPVALVENGTSVKQRVVHGVLTQLGELAQQVESPALIIVGRVVALRDKLNWFSNH
notes: as for B2
With B8, the binding result is recorded as “binds”.

B9: D262N/S128A CysG (enzyme)
chain: MDHLPIFCQLRDRDCLIVGGGDVAERKARLLLEAGARLTVNALTFIPQFTVWANEGMLTLVEGPFDETLLDSCWLAIAATDDDTVNQRVSDAAESRRIFCNVVDAPKAASFIMPSIIDRSPLMVAVSAGGTSPVLARLLREKLESLLPQHLGQVARYAGQLRARVKKQFATMGERRRFWEKFFVNDRLAQSLANADEKAVNATTERLFSEPLDHRGEVVLVGAGPGDAGLLTLKGLQQIQQADIVVYDRLVSDDIMNLVRRNADRVFVGKRAGYHCVPQEEINQILLREAQKGKRVVRLKGGDPFIFGRGGEELETLCHAGIPFSVVPGITAASGCSAYSGIPLTHRDYAQSVRLVTGHLKTGGELDWENLAAEKQTLVFYMGLNQAATIQEKLIAFGMQADMPVALVENGTSVKQRVVHGVLTQLGELAQQVESPALIIVGRVVALRDKLNWFSNH
notes: as for B2
B9: the binding result is reported as “binds”.
